According to US5985836A, “Alpha-1 proteinase inhibitor binding peptides” (Bayer Corporation, priority 1998, dated 1999):
Ends that are not written are not given here.

Key:
[1] = molecular target: T1, A1PI (Homo sapiens, UniProt P01009); assay: A1PI purification from 5 mg hSA + 1 mg A1PI on peptide column, A1PI mass balance; type: binding; conditions: for Mass Protein per Eluate Fraction, 1M NaCl / Mass Protein per Eluate Fraction, 2% Acetic Acid / Mass Protein per Eluate Fraction, Flow / Percent Eluted by Fraction, 1M NaCl / Percent Eluted by Fraction, 2% Acetic Acid / Percent Eluted by Fraction, 3M NaCl / Percent Eluted by Fraction, Flow / Mass Protein per Eluate Fraction, 2% Ac. Acid / Mass Protein per Eluate Fraction, 3M NaCl / Percent Eluted by Fraction, 2% Ac. Acid: A1PI, 5 mg hSA + 1 mg A1PI; for Mass Protein per Eluate Fraction, 1M NaCl / Mass Protein per Eluate Fraction, 2% Acetic Acid / Mass Protein per Eluate Fraction, Flow / Mass Protein per Eluate Fraction, 2% Ac. Acid / Mass Protein per Eluate Fraction, 3M NaCl: * Below detection limit; for Mass AlPI Eluted in Acid Eluate: nephelometry
T1 construct: Human plasma is currently the only approved source of therapeutic AlPI
Method in brief: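 Mass balance by immunonephelometry of fractions from step elutions (1M NaCl, 3M NaCl, 2% acetic acid, neutralised with Tris) at 865 μl/min. Sample was a mixture of 1 mg A1PI and 5 mg hSA held 10 min on peptide-derivatised Toyopearl columns (0.1 mmole/g) at 4 °C or 20 °C.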

[2] = molecular target: T1, A1PI; assay: Purification of A1PI from Effluent II+III on peptide column, A1PI mass balance; type: binding; conditions: 1 ml Eff. II+III, 4° C.; for Mass A1PI per Eluate Fraction, 2% Acetic Acid / Mass A1PI per Eluate Fraction, Flowthrough / Mass A1PI per Eluate Fraction, 1M NaCl: * Below detection limit
Method in brief: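 Feed: 1 ml Eff. II+III (20% EtOH, 20-25 mg/ml hSA, ~1 mg/ml A1PI). 10 min residence, then 865 μl/min; steps 1M NaCl / 3M NaCl / 2% acetic acid; 4° C. Mass balance per fraction.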

[3] = Table 10, 4° C., relative to total loaded
[4] = Table 10, 20° C., relative to total loaded
[5] = Table 19, 4° C., relative to total loaded
[6] = Table 19, 20° C., relative to total loaded
[7] = 4° C., relative to total eluted
[8] = 20° C., relative to total eluted
[9] = A1PI, * as in Tables 4, 5 (below detection limit)

T1 sequence (P01009 25-418): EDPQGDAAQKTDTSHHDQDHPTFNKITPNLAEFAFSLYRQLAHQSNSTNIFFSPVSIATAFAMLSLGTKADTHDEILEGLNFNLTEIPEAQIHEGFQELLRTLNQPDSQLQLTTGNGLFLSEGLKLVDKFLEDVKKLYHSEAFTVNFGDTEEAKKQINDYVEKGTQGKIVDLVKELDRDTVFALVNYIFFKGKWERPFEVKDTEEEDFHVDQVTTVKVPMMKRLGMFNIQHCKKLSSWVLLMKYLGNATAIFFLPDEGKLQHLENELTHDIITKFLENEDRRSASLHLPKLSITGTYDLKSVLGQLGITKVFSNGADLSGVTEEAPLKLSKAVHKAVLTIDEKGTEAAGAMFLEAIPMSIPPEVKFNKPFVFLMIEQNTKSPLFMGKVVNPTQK

VIFLVR was tested, and the “Mass Protein per Eluate Fraction, 1M NaCl” value ([1]; Table 10, 4° C.) was 0.05 mg, the “Mass Protein per Eluate Fraction, 2% Acetic Acid” value ([1]; Table 10, 4° C.) was 0.61 mg and the “Mass Protein per Eluate Fraction, Flow” value ([1]; Table 10, 4° C.) was 0.13 mg. The “Percent Eluted by Fraction, 1M NaCl” value [1, 3] was 7%, the “Percent Eluted by Fraction, 2% Acetic Acid” value [1, 3] was 77% and the “Percent Eluted by Fraction, 3M NaCl” value [1, 3] was 0%. For the same substance, the “Percent Eluted by Fraction, Flow” value [1, 3] was 16%, the “Mass Protein per Eluate Fraction, 1M NaCl” value ([1]; Table 10, 20° C.) was 0.02 mg and the “Mass Protein per Eluate Fraction, 2% Acetic Acid” value ([1]; Table 10, 20° C.) was 0.60 mg. The “Mass Protein per Eluate Fraction, Flow” value ([1]; Table 10, 20° C.) was 0.17 mg, the “Percent Eluted by Fraction, 1M NaCl” value [1, 4] was 2% and the “Percent Eluted by Fraction, 2% Acetic Acid” value [1, 4] was 76%. For the same substance, the “Percent Eluted by Fraction, 3M NaCl” value [1, 4] was 0%, the “Percent Eluted by Fraction, Flow” value [1, 4] was 22% and the “Mass Protein per Eluate Fraction, 1M NaCl” value ([1]; Table 19, 4° C.) was 0.05 mg. The “Mass Protein per Eluate Fraction, 2% Acetic Acid” value ([1]; Table 19, 4° C.) was 0.61 mg, the “Mass Protein per Eluate Fraction, Flow” value ([1]; Table 19, 4° C.) was 0.13 mg and the “Percent Eluted by Fraction, 2% Acetic Acid” value [1, 5] was 77%. The “Percent Eluted by Fraction, 3M NaCl” value [1, 5] was 0%, the “Percent Eluted by Fraction, Flow” value [1, 5] was 16% and the “Mass Protein per Eluate Fraction, 1M NaCl” value ([1]; Table 19, 20° C.) was 0.02 mg. The “Mass Protein per Eluate Fraction, 2% Acetic Acid” value ([1]; Table 19, 20° C.) was 0.60 mg, the “Mass Protein per Eluate Fraction, Flow” value ([1]; Table 19, 20° C.) was 0.17 mg and the “Percent Eluted by Fraction, 2% Acetic Acid” value [1, 6] was 76%. The “Percent Eluted by Fraction, 3M NaCl” value [1, 6] was 0%, the “Percent Eluted by Fraction, Flow” value [1, 6] was 22% and the “Mass A1PI per Eluate Fraction, 2% Acetic Acid” value ([2]; Table 11) was 0.57 mg. The “Mass A1PI per Eluate Fraction, Flowthrough” value ([2]; Table 11) was 0.13 mg, the “Percent Eluted by Fraction, 1M NaCl” value ([2]; Table 11, A1PI) was 0% and the “Percent Eluted by Fraction, 2% Acetic Acid” value ([2]; Table 11, A1PI) was 82%. For the same substance, the “Percent Eluted by Fraction, Flowthrough” value ([2]; Table 11, A1PI) was 18%, the “Mass A1PI per Eluate Fraction, 1M NaCl” value ([2]; Table 13) was 0.07 mg and the “Mass A1PI per Eluate Fraction, 2% Acetic Acid” value ([2]; Table 13) was 0.91 mg. The “Mass A1PI per Eluate Fraction, Flowthrough” value ([2]; Table 13) was 0.32 mg, the “Percent Eluted by Fraction, 1M NaCl” value ([2]; Table 13, A1PI) was 5% and the “Percent Eluted by Fraction, 2% Acetic Acid” value ([2]; Table 13, A1PI) was 70%. The “Percent Eluted by Fraction, Flowthrough” value ([2]; Table 13, A1PI) was 25%.
VIWLVR was tested, and the “Mass AlPI Eluted in Acid Eluate” value ([1]; 250 μg AlPI injected with 5 mg hSA, 20° C.) was 0.18 mg, the “Mass AlPI Eluted in Acid Eluate” value ([1]; 500 μg AlPI injected with 5 mg hSA, 20° C.) was 0.48 mg and the “Mass AlPI Eluted in Acid Eluate” value ([1]; 1000 μg AlPI injected with 5 mg hSA, 20° C.) was 0.70 mg. The “Mass Protein per Eluate Fraction, 1M NaCl” value ([1]; 4° C.) was 0.20 mg, the “Mass Protein per Eluate Fraction, 2% Ac. Acid” value ([1]; 4° C.) was 0.27 mg and the “Mass Protein per Eluate Fraction, 3M NaCl” value ([1]; 4° C.) was 0.01 mg. The “Mass Protein per Eluate Fraction, Flow” value ([1]; 4° C.) was 0.29 mg, the “Percent Eluted by Fraction, 1M NaCl” value [1, 7] was 26% and the “Percent Eluted by Fraction, 2% Ac. Acid” value [1, 7] was 35%. The “Percent Eluted by Fraction, 3M NaCl” value [1, 7] was 1%, the “Percent Eluted by Fraction, Flow” value [1, 7] was 38% and the “Mass Protein per Eluate Fraction, 1M NaCl” value ([1]; 20° C.) was 0.08 mg. The “Mass Protein per Eluate Fraction, 2% Ac. Acid” value ([1]; 20° C.) was 0.65 mg, the “Mass Protein per Eluate Fraction, 3M NaCl” value ([1]; 20° C.) was 0.02 mg and the “Mass Protein per Eluate Fraction, Flow” value ([1]; 20° C.) was 0.08 mg. For the same substance, the “Percent Eluted by Fraction, 1M NaCl” value [1, 8] was 9%, the “Percent Eluted by Fraction, 2% Ac. Acid” value [1, 8] was 80% and the “Percent Eluted by Fraction, 3M NaCl” value [1, 8] was 2%. For the same substance, the “Percent Eluted by Fraction, Flow” value [1, 8] was 9%, the “Mass Protein per Eluate Fraction, 1M NaCl” value ([1]; Table 10, 4° C.) was 0.21 mg and the “Mass Protein per Eluate Fraction, 2% Acetic Acid” value ([1]; Table 10, 4° C.) was 0.31 mg. The “Mass Protein per Eluate Fraction, 3M NaCl” value ([1]; Table 10, 4° C.) was 0.03 mg, the “Mass Protein per Eluate Fraction, Flow” value ([1]; Table 10, 4° C.) was 0.28 mg and the “Percent Eluted by Fraction, 1M NaCl” value [1, 3] was 26%. For the same substance, the “Percent Eluted by Fraction, 2% Acetic Acid” value [1, 3] was 38%, the “Percent Eluted by Fraction, 3M NaCl” value [1, 3] was 4% and the “Percent Eluted by Fraction, Flow” value [1, 3] was 35%. The “Mass Protein per Eluate Fraction, 1M NaCl” value ([1]; Table 10, 20° C.) was 0.08 mg, the “Mass Protein per Eluate Fraction, 2% Acetic Acid” value ([1]; Table 10, 20° C.) was 0.65 mg and the “Mass Protein per Eluate Fraction, 3M NaCl” value ([1]; Table 10, 20° C.) was 0.02 mg. The “Mass Protein per Eluate Fraction, Flow” value ([1]; Table 10, 20° C.) was 0.08 mg, the “Percent Eluted by Fraction, 1M NaCl” value [1, 4] was 9% and the “Percent Eluted by Fraction, 2% Acetic Acid” value [1, 4] was 80%. The “Percent Eluted by Fraction, 3M NaCl” value [1, 4] was 2%, the “Percent Eluted by Fraction, Flow” value [1, 4] was 9% and the “Percent Eluted by Fraction, 1M NaCl” value ([2]; A1PI) was 9%. For the same substance, the “Percent Eluted by Fraction, 2% Acetic Acid” value ([2]; A1PI) was 43%, the “Percent Eluted by Fraction, 3M NaCl” value ([2]; A1PI) was 0% and the “Percent Eluted by Fraction, Flow” value ([2]; A1PI) was 48%. For the same substance, the “Mass Protein per Eluate Fraction, 1M NaCl” value [2, 9] was 0.10 mg, the “Mass Protein per Eluate Fraction, 2% Acetic Acid” value [2, 9] was 0.51 mg and the “Mass Protein per Eluate Fraction, Flow” value [2, 9] was 0.58 mg. For the same substance, the “Mass A1PI per Eluate Fraction, 1M NaCl” value ([2]; Table 11) was 0.10 mg, the “Mass A1PI per Eluate Fraction, 2% Acetic Acid” value ([2]; Table 11) was 0.51 mg and the “Mass A1PI per Eluate Fraction, Flowthrough” value ([2]; Table 11) was 0.58 mg. For the same substance, the “Percent Eluted by Fraction, 1M NaCl” value ([2]; Table 11, A1PI) was 9%, the “Percent Eluted by Fraction, 2% Acetic Acid” value ([2]; Table 11, A1PI) was 43% and the “Percent Eluted by Fraction, Flowthrough” value ([2]; Table 11, A1PI) was 48%.
